# From patent US20240366728A1 (CARMOT THERAPEUTICS, published 2024)
# T1: human GIPR (human, UniProt P48546 22-466)
# T1 sequence (looked up): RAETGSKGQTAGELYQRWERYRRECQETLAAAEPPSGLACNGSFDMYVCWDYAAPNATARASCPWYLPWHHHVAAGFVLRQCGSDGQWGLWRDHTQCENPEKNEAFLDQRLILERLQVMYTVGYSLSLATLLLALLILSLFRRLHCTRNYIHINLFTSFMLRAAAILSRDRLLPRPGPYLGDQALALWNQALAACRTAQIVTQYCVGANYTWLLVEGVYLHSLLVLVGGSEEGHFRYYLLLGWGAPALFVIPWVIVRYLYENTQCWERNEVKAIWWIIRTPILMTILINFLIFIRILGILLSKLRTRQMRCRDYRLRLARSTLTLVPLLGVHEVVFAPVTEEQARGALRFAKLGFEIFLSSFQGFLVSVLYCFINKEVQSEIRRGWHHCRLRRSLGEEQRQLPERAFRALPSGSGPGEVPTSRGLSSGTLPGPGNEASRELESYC
# T2: mouse GIPR (mouse, UniProt Q0P543 19-460)
# T2 sequence (looked up): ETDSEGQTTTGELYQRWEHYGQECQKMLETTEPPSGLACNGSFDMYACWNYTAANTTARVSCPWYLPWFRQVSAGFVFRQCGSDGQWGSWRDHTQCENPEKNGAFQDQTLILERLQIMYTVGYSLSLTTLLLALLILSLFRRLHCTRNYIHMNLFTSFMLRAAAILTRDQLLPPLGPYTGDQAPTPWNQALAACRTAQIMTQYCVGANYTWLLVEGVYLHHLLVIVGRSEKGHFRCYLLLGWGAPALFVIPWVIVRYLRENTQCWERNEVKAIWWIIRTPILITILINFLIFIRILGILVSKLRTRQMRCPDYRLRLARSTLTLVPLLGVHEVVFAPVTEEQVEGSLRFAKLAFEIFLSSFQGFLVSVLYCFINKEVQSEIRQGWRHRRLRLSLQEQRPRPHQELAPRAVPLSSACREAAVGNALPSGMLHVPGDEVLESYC
# T3: mouse GLP-1R (mouse, UniProt O35659 22-463)
# T3 sequence (looked up): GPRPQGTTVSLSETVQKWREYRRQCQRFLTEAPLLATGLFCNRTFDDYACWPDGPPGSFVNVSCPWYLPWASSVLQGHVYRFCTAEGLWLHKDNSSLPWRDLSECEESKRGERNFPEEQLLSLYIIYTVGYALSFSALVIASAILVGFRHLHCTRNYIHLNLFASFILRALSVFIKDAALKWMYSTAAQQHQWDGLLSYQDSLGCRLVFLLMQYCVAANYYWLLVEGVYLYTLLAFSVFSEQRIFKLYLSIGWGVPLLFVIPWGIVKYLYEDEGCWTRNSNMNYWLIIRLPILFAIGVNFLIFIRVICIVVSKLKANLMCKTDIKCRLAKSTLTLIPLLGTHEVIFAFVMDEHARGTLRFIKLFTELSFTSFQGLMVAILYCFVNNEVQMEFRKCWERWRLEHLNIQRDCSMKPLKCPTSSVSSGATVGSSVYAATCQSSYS
# B1: CT-868 (peptide)
# peptide: EGTFTSDYSIYLDKQAAXEFVNWLLAGGPSSGAPPPSK
# modifications: N-terminal 2-(2-Piperidon-1-yl)-ethylcarbamoylmethylthio-acetyl on Glu; Aib (18th residue of the printed chain); C-terminal Lys(γ-Glu-palmitoyl)-NH2; hydrochloride salt
# Assays:
# Test in all cases: cell-based or functional assay
# human GIPR [1] = molecular target: T1, human GIPR
# human GLP-1R [2] = molecular target: T4, human GLP-1R (human, UniProt P43220 24-463)
# human GIPR [3] = molecular target: T1, human GIPR; remark: listed apart in the source
# human GLP-1R [4] = molecular target: T4, human GLP-1R; remark: listed apart in the source
# mouse GIPR = molecular target: T2, mouse GIPR
# mouse GLP-1R = molecular target: T3, mouse GLP-1R
binder,measurement,setting,value
B1,fold less potent than GIP (cAMP accumulation),human GIPR [1],16 fold
same,ratio GLP-1R over GIPR (cAMP potency),human GIPR [1],~19.4
same,fold less potent than GLP-1 (cAMP accumulation),human GLP-1R [2],6 fold
same,hGIPR Internalization EC50,human GIPR [3],14 nM
same,hGIPR cAMP (-alb) EC50,human GIPR [3],1.9 nM
same,hGIPR β-arrestin-2 EC50,human GIPR [3],13 nM
same,hGIPR/hGLP-1R cAMP ratio,human GIPR [3],12
same,hGLP-1R Internalization EC50,human GLP-1R [4],3.1 nM
same,hGLP-1R cAMP (-alb) EC50,human GLP-1R [4],0.156 nM
same,hGLP-1R β-arrestin-2 EC50,human GLP-1R [4],11 nM
same,mGIPR cAMP (-alb) EC50,mouse GIPR,1.03 nM
same,mGIPR β-arrestin-2 EC50,mouse GIPR,6.21 nM
same,mGIPR/mGLP-1R cAMP ratio,mouse GIPR,6
same,mGLP-1R cAMP (-alb) EC50,mouse GLP-1R,0.164 nM
same,mGLP-1R β-arrestin-2 EC50,mouse GLP-1R,21.1 nM
